Test results reported in article PMC10599278.

Settings: ubiquitination at K213

Substance: IGF2BP3: K213R
- other: decreases
